This note sets out measurements from paper PMC6795519.

The assay addresses PIP3-dependent Rac exchanger 1 (P-Rex1), residues 38 to 1659 (human) (UniProt Q8TCU6).
Chain of UniProt Q8TCU6 (Q8TCU6 38-1659): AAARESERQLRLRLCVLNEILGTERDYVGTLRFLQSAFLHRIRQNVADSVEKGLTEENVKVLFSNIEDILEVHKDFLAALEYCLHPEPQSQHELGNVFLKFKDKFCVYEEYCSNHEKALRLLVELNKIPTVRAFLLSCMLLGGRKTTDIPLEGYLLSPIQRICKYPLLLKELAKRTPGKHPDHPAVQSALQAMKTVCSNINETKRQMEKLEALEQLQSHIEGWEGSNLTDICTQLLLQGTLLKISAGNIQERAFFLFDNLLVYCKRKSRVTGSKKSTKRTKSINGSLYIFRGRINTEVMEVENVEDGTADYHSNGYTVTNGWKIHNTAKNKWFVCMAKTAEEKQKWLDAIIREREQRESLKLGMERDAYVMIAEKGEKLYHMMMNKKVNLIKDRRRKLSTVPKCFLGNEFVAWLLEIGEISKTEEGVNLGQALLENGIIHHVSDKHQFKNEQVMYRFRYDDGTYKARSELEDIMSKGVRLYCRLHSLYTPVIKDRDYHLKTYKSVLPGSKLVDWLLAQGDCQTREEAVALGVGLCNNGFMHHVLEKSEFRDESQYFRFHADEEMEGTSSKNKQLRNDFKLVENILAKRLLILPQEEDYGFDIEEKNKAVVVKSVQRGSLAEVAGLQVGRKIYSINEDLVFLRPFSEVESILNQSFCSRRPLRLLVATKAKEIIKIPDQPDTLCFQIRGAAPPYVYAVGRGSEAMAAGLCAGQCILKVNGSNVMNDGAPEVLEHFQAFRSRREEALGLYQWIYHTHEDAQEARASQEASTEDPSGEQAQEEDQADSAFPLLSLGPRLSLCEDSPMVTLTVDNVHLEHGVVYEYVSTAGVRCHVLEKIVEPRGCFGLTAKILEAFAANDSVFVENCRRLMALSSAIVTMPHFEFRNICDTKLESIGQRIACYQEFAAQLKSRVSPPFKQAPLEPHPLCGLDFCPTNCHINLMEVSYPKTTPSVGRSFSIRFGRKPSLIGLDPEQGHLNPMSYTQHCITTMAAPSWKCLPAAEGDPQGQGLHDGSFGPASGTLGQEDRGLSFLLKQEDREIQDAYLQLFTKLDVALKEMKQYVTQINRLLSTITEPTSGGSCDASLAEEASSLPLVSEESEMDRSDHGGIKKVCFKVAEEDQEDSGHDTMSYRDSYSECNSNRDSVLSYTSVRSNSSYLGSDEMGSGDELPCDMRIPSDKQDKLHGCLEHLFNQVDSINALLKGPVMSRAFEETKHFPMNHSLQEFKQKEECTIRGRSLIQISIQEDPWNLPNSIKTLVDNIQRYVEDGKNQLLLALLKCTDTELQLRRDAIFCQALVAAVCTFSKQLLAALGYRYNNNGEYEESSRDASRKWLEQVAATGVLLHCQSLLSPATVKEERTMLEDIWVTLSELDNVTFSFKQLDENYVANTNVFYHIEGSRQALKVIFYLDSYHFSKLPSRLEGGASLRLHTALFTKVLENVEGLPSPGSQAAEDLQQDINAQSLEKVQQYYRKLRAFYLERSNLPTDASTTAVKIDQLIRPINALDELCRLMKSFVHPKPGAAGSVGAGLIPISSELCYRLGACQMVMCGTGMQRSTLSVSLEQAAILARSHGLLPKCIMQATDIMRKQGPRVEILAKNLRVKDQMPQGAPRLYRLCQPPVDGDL

With “Geranylgeranylated human Gβ1γ2 with Gβ W332A (from UniProt P62873 1-340; P59768 1-71) (complex)”, the liposome-based GEF assay, Gβγ dose-response (0.5 μM PIP3): EC50 of activation of P-Rex1 against WT Gβγ; lower efficacy than WT worked out at 10 fold.
